In publication PMC6416295:

What was measured:
[1] = system: HlyU (Vibrio vulnificus MO6-24/O); assay: EMSA; conditions: 10 mM Tris-Cl pH 7.5, 50 mM KCl, 5 mM MgCl2, 5% glycerol, 0.1 ug poly(dI-dC) in 20 ul, 5 nM DNA, 25 C, 0.5 h; 6% native PAGE
[2] = system: HlyU (Vibrio vulnificus MO6-24/O); assay: EMSA; conditions: 10 mM Tris-Cl pH 7.5, 50 mM KCl, 5 mM MgCl2, 5% glycerol, 0.1 ug poly(dI-dC) in 20 ul, 5 nM DNA, 25 C, 0.5 h; 6% native PAGE; remark: listed apart in the source

PrtxA 264-bp
Kd [1]: 25.2 nM | Kd [2]: 54.8 nM
